Results taken from patent US20250099635A1, “IIMMUNOCONJUGATES COMPRISING KALLIKREIN RELATED PEPTIDASE 2 ANTIGEN BINDING DOMAINS AND THEIR USES” (Janssen Biotech, Inc., priority 2022, published 2025).

Target: soluble human kallikrein related peptidase 2 (hK2) protein (human) (UniProt P20151)
Assay: SPR; antibody captured by anti-Fc antibody, soluble hK2 injected; 1:1 Langmuir fit

soluble human kallikrein related peptidase 2 (hK2) protein (human), sequence (P20151 19-261): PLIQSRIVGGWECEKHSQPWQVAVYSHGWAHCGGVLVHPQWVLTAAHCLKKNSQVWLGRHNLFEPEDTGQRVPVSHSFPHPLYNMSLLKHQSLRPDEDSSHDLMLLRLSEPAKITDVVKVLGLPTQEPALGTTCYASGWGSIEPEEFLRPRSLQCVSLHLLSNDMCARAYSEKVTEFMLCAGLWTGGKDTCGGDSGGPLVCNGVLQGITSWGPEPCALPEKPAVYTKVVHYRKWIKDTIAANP

B1: KL2B359 (scFv-LH-Fc) (Fc fusion, part only; not given: Fc part, part only)
scFv, part: EIVLTQSPATLSLSPGERATLSCRASESVEYFGTSLMHWYQQKPGQPPRLLIYAASNVESGIPARFSGSGSGTDFTLTISSVEPEDFAVYFCQQTRKVPYTFGGGTKVEIKGGSEGKSSGSGSESKSTGGSQVQLQESGPGLVKPSQTLSLTCTVSGNSITSDYAWNWIRQFPGKRLEWIGYISYSGSTTYNPSLKSRVTISRDTSKNQFSLKLSSVTAADTAVYYCATGYYYGSGFWGQGTLVTVSS
Kd: 0.7 to 1 nM

B2: KL2B413 (scFv-LH-Fc) (Fc fusion, part only; not given: Fc part, part only)
scFv, part: EIVLTQSPSFLSASVGDRVTITCRASQGISSYLSWYQQKPGKAPKLLIYATSTLQSGVPSRFSGSGSGTEFTLTISSLQPEDFATYYCQQLNSYPRTFGQGTKVEIKGGSEGKSSGSGSESKSTGGSEVQLVESGGGLVQPGGSLRLSCAASGFTFSSYWMTWVRQAPGKGLEWVANIKQDGSERYYVDSVKGRFTISRDNAKNSLYLQMNSLRAEDTAVYYCARDQNYDILTGHYGMDVWGQGTTVTVSS
Kd: 34.3 nM
